Results published in US20190077860A1 (EISAI R AND D MANAGEMENT, published 2019).
Substitutions are numbered along the chain they refer to.

B1: humanized antibody No. 81 (antibody, human IgG1, kappa)
heavy: QVQLVQSGSELKKPGASVKVSCKASGYTFTDYSMHWVRQAPGQGLEWMGWINTETGEPTYAQGFTGRFVFSLDTSVSTAYLQISSLKAEDTAVYYCARIPLYYYGSRYWYFDVWGQGTTVTVSSASTKGPSVFPLAPSSKSTSGGTAALGCLVKDYFPEPVTVSWNSGALTSGVHTFPAVLQSSGLYSLSSVVTVPSSSLGTQTYICNVNHKPSNTKVDKRVEPKSCDKTHTCPPCPAPPAAAPSVFLFPPKPKDTLMISRTPEVTCVVVDVSHEDPEVQFNWYVDGVEVHNAKTKPREEQFNSTFRVVSVLTVVHQDWLNGKEYKCKVSNKGLPAPIEKTISKTKGQPREPQVYTLPPSREEMTKNQVSLTCLVKGFYPSDIAVEWESNGQPENNYKTTPPMLDSDGSFFLYSKLTVDKSRWQQGNVFSCSVMHEALHNHYTQKSLSLSPG
light: DIQMTQSPSSLSASVGDRVTITCRASENIYRNLAWYQQKPGKAPKLLLYAATNLADGVPSRFSGSGSGTDYTLTISSLQSEDFATYYCQHFWGTPWTFGQGTKVEIKRTVAAPSVFIFPPSDEQLKSGTASVVCLLNNFYPREAKVQWKVDNALQSGNSQESVTEQDSKDSTYSLSSTLTLSKADYEKHKVYACEVTHQGLSSPVTKSFNRGEC
notes: human Ig kappa; also called L1-5/HA1
B2: humanized antibody No. 82 (antibody, human IgG1, kappa)
heavy: B1 heavy with E46K
light: B1 light
notes: human Ig kappa; also called L1-5/HA2
B3: humanized antibody No. 83 (antibody, human IgG1, kappa)
heavy: B1 heavy with V2I, E46K
light: B1 light
notes: human Ig kappa; also called L1-5/HA4
B4: humanized antibody No. 84 (antibody, human IgG1, kappa)
heavy: B1 heavy with Q62D, G63D, T65K
light: B1 light
notes: human Ig kappa; also called L1-5/HK1
B5: humanized antibody No. 85 (antibody, human IgG1, kappa)
heavy: B1 heavy with E46K, Q62D, G63D, T65K
light: B1 light
notes: human Ig kappa; also called L1-5/HK2
B6: humanized antibody No. 86 (antibody, human IgG1, kappa)
heavy: B1 heavy with V2I, E46K, Q62D, G63D, T65K
light: B1 light
notes: human Ig kappa; also called L1-5/HK4
B7: humanized antibody No. 87 (antibody, human IgG1, kappa)
heavy: B1 heavy
light: B1 light with K45Q, S80P
notes: human Ig kappa; also called L1-6/HA1
B8: humanized antibody No. 88 (antibody, human IgG1, kappa)
heavy: B1 heavy with E46K
light: B1 light with K45Q, S80P
notes: human Ig kappa; also called L1-6/HA2
B9: humanized antibody No. 89 (antibody, human IgG1, kappa)
heavy: B1 heavy with V2I, E46K
light: B1 light with K45Q, S80P
notes: human Ig kappa; also called L1-6/HA4
B10: humanized antibody No. 90 (antibody, human IgG1, kappa)
heavy: B1 heavy with Q62D, G63D, T65K
light: B1 light with K45Q, S80P
notes: human Ig kappa; also called L1-6/HK1
B11: humanized antibody No. 91 (antibody, human IgG1, kappa)
heavy: B1 heavy with E46K, Q62D, G63D, T65K
light: B1 light with K45Q, S80P
notes: human Ig kappa; also called L1-6/HK2
B12: humanized antibody No. 92 (antibody, human IgG1, kappa)
heavy: B1 heavy with V2I, E46K, Q62D, G63D, T65K
light: B1 light with K45Q, S80P
notes: human Ig kappa; also called L1-6/HK4
B13: humanized antibody No. 140 (antibody, human IgG2)
heavy: QVQLVQSGSELKKPGASVKVSCKASGYTFTDYSMHWVRQAPGQGLKWMGWINTETGEPTYAQGFTGRFVFSLDTSVSTAYLQISSLKAEDTAVYYCARIPLYYYGSRYWYFDVWGQGTTVTVSSASTKGPSVFPLAPSSRSTSESTAALGCLVKDYFPEPVTVSWNSGALTSGVHTFPAVLQSSGLYSLSSVVTVPSSNFGTQTYTCNVDHKPSNTKVDKTVERKSCVECPPCPAPPAAAPSVFLFPPKPKDTLMISRTPEVTCVVVDVSHEDPEVQFNWYVDGVEVHNAKTKPREEQFNSTFRVVSVLTVVHQDWLNGKEYKCKVSNKGLPAPIEKTISKTKGQPREPQVYTLPPSREEMTKNQVSLTCLVKGFYPSDIAVEWESNGQPENNYKTTPPMLDSDGSFFLYSKLTVDKSRWQQGNVFSCSVMHEALHNHYTQKSLSLSPG
light: B1 light with L48V, S80P
notes: human Ig kappa; also called L1-4/HA2
B14: humanized antibody No. 138 (antibody, human IgG2)
heavy: B13 heavy with V2I
light: B1 light with L48V, S80P
notes: human Ig kappa; also called L1-4/HA4
B15: humanized antibody No. 139 (antibody, human IgG2)
heavy: B13 heavy with K46E
light: B1 light with L48V, S80P
notes: human Ig kappa; also called L1-4/HA1
B16: humanized antibody No. 141 (antibody, human IgG2)
heavy: B13 heavy with K46E, Q62D, G63D, T65K
light: B1 light with L48V, S80P
notes: human Ig kappa; also called L1-4/HK1
B17: humanized antibody No. 142 (antibody, human IgG2)
heavy: B13 heavy with Q62D, G63D, T65K
light: B1 light with L48V, S80P
notes: human Ig kappa; also called L1-4/HK2
B18: humanized antibody No. 143 (antibody, human IgG2)
heavy: B13 heavy with V2I, Q62D, G63D, T65K
light: B1 light with L48V, S80P
notes: human Ig kappa; also called L1-4/HK4
B19: humanized antibody No. 144 (antibody, human IgG2)
heavy: B13 heavy with K46E, Q62D, G63D, T65K
light: B1 light with K45Q, S80P
notes: as for B10
B20: humanized antibody No. 145 (antibody, human IgG2)
heavy: B13 heavy with Q62D, G63D, T65K
light: B1 light
notes: as for B5
B21: humanized antibody No. 151 (antibody, human IgG2)
heavy: B13 heavy with V2I
light: B1 light
notes: as for B3
B22: humanized antibody No. 152 (antibody, human IgG2)
heavy: B13 heavy with K46E
light: B1 light
notes: as for B1

Experiments:
[1] = molecular target: T1, human EphA4 extracellular region-SEAP-His protein (human, UniProt P54764 20-547); experiment: competition ELISA, competitor human Ephrin A5-Fc
T1 construct: also called hEphA4-SEAP-His
Experimental: Each anti-EphA4 monoclonal humanized antibody obtained in Example 16 was evaluated for its inhibitory activity against the binding between human EphA4 and its human ligand according to the following steps. Each well of a 96-well plate (Nunc) was coated with an anti-alkaline phosphatase antibody (Thermo Fisher Scientific). After incubation overnight at 4° C., each well was blocked with 1% BlockAce (DS Pharma Biomedical) at room temperature for 1 hour. After washing with 0.05% Tween 20/PBS (Thermo Fisher Scientific) three times, the human EphA4 extracellular region-SEAP-His protein obtained by the method of Example 2 was added (final concentration: 10 nM) to each well and incubated at room temperature for 1 hour. After washing three times, a ligand and each serially diluted humanized antibody of antibody A (0, 0.003, 0.01, 0.03, 0.1, 0.3, 1, 3, 10, 30, 100, 300, 1000, and 3000 nM) were added to each well. The ligand used was biotinylated human Ephrin A5-Fc chimera (R&D Systems, final concentration: 0.7 nM). After incubation at room temperature for 1 hour and subsequent washing three times, horseradish peroxidase-labeled streptavidin (GE Healthcare) was added thereto and incubated at room temperature for 1 hour. After washing three times, a TMBZ (3,3′,5,5′-tetramethylbenzidine, Sigma-Aldrich) solution was added to each well and incubated at room temperature for 2 minutes. An equal amount of a reaction stopping solution (1N H₂SO₄, Wako Pure Chemical Industries) was added to each well. The absorbance at 450 nm was read using a microplate reader (PerkinElmer).

[2] = molecular target: T1, human EphA4 extracellular …; experiment: SPR, Ab captured
Experimental: The binding affinity of each anti-EphA4 monoclonal humanized antibody obtained in Example 16 for human EphA4 was determined by surface plasmon resonance (SPR) using Biacore T200 (GE Healthcare). First, for the assay of antibody A, a rat anti-mouse IgG₁ antibody produced with a conventional method by immunizing rat with mouse IgG₁ antibody was immobilized on sensor chip CM5. The immobilization of the rat anti-mouse IgG1 antibody on sensor chip CM5 was performed by the amine coupling method using N-hydroxysuccinimide (NHS) and N-ethyl-N′-(3-dimethylaminopropyl)carbodiimide hydrochloride (EDC). Ethanolamine was used in blocking (the sensor chip and the reagents for immobilization were all manufactured by GE Healthcare). The antibody was diluted with a buffer solution for immobilization (10 mM sodium acetate, pH 4.5) and immobilized on the sensor chip according to the protocol attached to Biacore T200. For the assay of each humanized monoclonal antibody, a protein A chip (GE Healthcare, 29-1383-03) was used. Antibody A or the humanized monoclonal antibody was diluted with a running buffer solution HBS-EP (GE Healthcare), injected onto only flow cell 2 for 120 seconds, and captured (captured amount: approximately 30 to 60 RU). Subsequently, human EphA4 extracellular region-SEAP-His protein serially diluted in the range of 50, 16.7, 5.6, 1.9, and 0.6 nM using HBS-EP was sequentially added from the lower toward higher concentration sides without regeneration operation. Binding reaction curves were sequentially observed at the time of the addition (association phase, for 120 sec) and after the completion of the addition (dissociation phase, for 900 sec). After the completion of each observation, the sensor chip was regenerated by the addition of 3 M MgCl₂ (for 60 sec) or 10 mM Glycine-HCl pH 1.5 (for 30 sec). The obtained binding reaction curves were subjected to fitting analysis with 1:1 binding models using software BIA evaluation attached to the system to calculate the affinity (KD=kd/ka) for human EphA4 (Table 6).

T1 sequence (P54764 20-547): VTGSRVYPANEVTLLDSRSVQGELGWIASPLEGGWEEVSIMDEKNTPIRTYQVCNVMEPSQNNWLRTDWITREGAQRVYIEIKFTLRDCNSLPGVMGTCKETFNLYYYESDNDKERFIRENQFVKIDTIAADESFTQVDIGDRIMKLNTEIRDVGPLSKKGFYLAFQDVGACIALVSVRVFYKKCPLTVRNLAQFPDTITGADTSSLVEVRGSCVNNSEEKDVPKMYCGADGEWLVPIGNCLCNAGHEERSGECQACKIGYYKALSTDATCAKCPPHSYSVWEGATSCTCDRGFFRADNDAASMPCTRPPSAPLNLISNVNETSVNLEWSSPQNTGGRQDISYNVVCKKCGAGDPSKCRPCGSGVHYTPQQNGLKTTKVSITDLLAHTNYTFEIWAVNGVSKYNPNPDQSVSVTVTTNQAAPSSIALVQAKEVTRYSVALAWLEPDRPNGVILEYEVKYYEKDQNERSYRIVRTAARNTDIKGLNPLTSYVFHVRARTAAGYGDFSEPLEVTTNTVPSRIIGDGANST

Row | Binder | IC50 [1] [nM] | Kd [2] [nM] | koff [2] [s⁻¹] | kon [2] [M⁻¹ s⁻¹]
1 | B1 | 4 | 1.6 | 0.00054 | 340000
2 | B2 | 4.1 | 1.6 | 0.00046 | 290000
3 | B3 | 3.7 | 1.9 | 0.00054 | 290000
4 | B4 | 4.6 | 1.7 | 0.00056 | 350000
5 | B5 | 4 | 1.6 | 0.0005 | 310000
6 | B6 | 4 | 1.5 | 0.00046 | 310000
7 | B7 | 3 | 1.5 | 0.00051 | 350000
8 | B8 | 3.6 | 1.4 | 0.00042 | 300000
9 | B9 | 4.3 | 1.3 | 0.00041 | 310000
10 | B10 | 4.5 | 1.5 | 0.00055 | 360000
11 | B11 | 4.9 | 1.3 | 0.00044 | 330000
12 | B12 | 3.5 | 1.3 | 0.00043 | 330000
13 | B13 | 2.4 | 1.4 | 0.00043 | 320000
14 | B14 | 2.9 | 1.3 | 0.00043 | 330000
15 | B15 | 3.3 | 1.4 | 0.00053 | 370000
16 | B16 | 3 | 1.6 | 0.00062 | 390000
17 | B17 | 3.7 | 1.5 | 0.0005 | 340000
18 | B18 | 5.3 | 1.5 | 0.00051 | 350000
19 | B19 | 3.6 | 2 | 0.00078 | 400000
20 | B20 | 3.7 | 2 | 0.00065 | 330000
21 | B21 | 2 | 1.7 | 0.00053 | 320000
22 | B22 | 2 | 2 | 0.00082 | 400000
